Target: T1, APP770-YFP (human, UniProt P05067-1 18-770)
T1 construct: human amyloid precursor protein, the isoform named APP770; Plasmid was a gift (Prof. Goldstein, UCSD); the construct is not described further; also called APP-YFP; source: HEK293, transfected (APP770-YFP pcDNA3.1), in lysate or in living cells
Test: FRET or BRET; FRET acceptor bleaching in co-transfected HEK293 cells (YFP and CFP fusions); FRET efficiency from photobleached regions of interest; the negative control's value used as cut-off
Conditions: partners not purified

T1 sequence (P05067 18-770): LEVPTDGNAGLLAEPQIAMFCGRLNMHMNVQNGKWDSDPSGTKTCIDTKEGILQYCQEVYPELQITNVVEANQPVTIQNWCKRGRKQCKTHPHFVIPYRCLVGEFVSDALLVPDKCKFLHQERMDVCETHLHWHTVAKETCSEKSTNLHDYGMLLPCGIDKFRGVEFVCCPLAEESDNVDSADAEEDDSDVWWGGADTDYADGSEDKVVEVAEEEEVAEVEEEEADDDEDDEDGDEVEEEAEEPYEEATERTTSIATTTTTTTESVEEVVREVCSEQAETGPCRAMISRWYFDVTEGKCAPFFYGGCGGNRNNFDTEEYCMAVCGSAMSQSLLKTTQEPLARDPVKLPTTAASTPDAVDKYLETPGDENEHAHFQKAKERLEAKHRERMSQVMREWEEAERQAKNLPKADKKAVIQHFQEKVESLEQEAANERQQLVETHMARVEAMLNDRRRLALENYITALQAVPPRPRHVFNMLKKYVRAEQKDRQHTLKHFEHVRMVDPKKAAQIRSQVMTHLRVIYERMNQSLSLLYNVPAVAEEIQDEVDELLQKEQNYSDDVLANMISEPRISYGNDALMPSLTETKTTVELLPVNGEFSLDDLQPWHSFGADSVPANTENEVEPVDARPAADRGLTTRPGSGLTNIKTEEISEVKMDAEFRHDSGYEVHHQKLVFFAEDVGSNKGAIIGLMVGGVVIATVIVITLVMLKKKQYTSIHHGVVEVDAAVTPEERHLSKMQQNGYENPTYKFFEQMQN

B1: Sort 756-831-CFP (domain or fragment, human, UniProt Q99523-1 756-831, looked up)
chain: SVPIILAIVGLMLVTVVAGVLIVKKYVCGGRFLVHRYSVLQQHAEANGVDGVDALDTASHTNKSGYHDDSDEDLLE
notes: The forward primer adds a start ATG before the stretch; source: HEK293, transfected, in lysate or in living cells; not shown: CFP (vector pECFP-N1), C-terminal, kept
With B1 the FRET efficiency was 40%.

— article PMC3660575, “The Intracellular Domain of Sortilin Interacts with Amyloid Precursor Protein and Regulates Its Lysosomal and Lipid Raft Trafficking” (PLoS ONE, 2013)
